Assay results taken from PMC8346855.
Blank lines part the entries; values can stand above or below the substance they belong to.

Columns and labels:
[1] = target: thermostabilized turkey beta-1 adrenergic receptor (turkey) (UniProt P07700); test: cross-linking; Kd by titrating the partner protein against isoprenaline-bound β1AR; 20 mM Hepes pH 7.5, 40 mM NaCl, 0.01% lauryl maltose neopentyl glycol; BS(PEG)9, high-mass MALDI-MS, normalised to β-galactosidase
[2] = target: thermostabilized turkey beta-1 adrenergic receptor (turkey) (UniProt P07700); test: cross-linking; Kd by titrating the G protein against the apo GPCR; 20 mM Hepes pH 7.5, 40 mM NaCl, 0.01% lauryl maltose neopentyl glycol; BS(PEG)9, high-mass MALDI-MS, normalised to β-galactosidase
[3] = target: angiotensin II-bound F117W mutant of mouse angiotensin II type 1 receptor (mouse | not stated) (UniProt P29754); test: cross-linking; Kd by titrating the G protein against ligand-bound AT1R; 20 mM Hepes pH 7.5, 40 mM NaCl, 0.01% lauryl maltose neopentyl glycol; BS(PEG)9, high-mass MALDI-MS, normalised to β-galactosidase
[4] = target: thermostabilized turkey beta-1 adrenergic receptor (turkey) (UniProt P07700); test: cross-linking; apo β1AR with Gαi or β-arrestin-1 at equimolar concentration; BS(PEG)9, high-mass MALDI-MS; percent complex by normalisation with β-Gal
[5] = target: thermostabilized turkey beta-1 adrenergic receptor (turkey) (UniProt P07700); test: cross-linking; carvedilol-bound β1AR with Gαi or β-arrestin-1 at equimolar concentration; BS(PEG)9, high-mass MALDI-MS; percent complex by normalisation with β-Gal
[6] = target: thermostabilized turkey beta-1 adrenergic receptor (turkey) (UniProt P07700); test: cross-linking; isoprenaline-bound β1AR with Gαi or β-arrestin-1 at equimolar concentration; BS(PEG)9, high-mass MALDI-MS; percent complex by normalisation with β-Gal
[7] = target: thermostabilized turkey beta-1 adrenergic receptor (turkey) (UniProt P07700); test: cross-linking; β1AR and partner with 1 or 25 µM s32212 at increasing concentrations of isoprenaline; BS(PEG)9, high-mass MALDI-MS
[8] = target: mouse angiotensin II type 1 receptor F117W Δ324 with a C-terminal 1D4 tag (mouse); test: cross-linking + other: high-mass MALDI-MS; ligand-free (apo) GPCR, 5 µM, mixed with partner protein at various concentrations, 1 h at room temperature, BS(PEG)9 cross-linking, β-Gal as internal standard; 20 mM Hepes pH 7.5, 40 mM NaCl, 0.01% LMNG; Ka = 1/Kd
[9] = target: angiotensin II-bound mouse angiotensin II type 1 receptor F117W Δ324 (mouse | human); test: cross-linking + other: high-mass MALDI-MS; angiotensin II-bound AT1R (angII-AT1R), 5 µM, mixed with partner protein at various concentrations, 1 h at room temperature, BS(PEG)9 cross-linking, 1.0 µM β-Gal as internal standard; 20 mM Hepes pH 7.5, 40 mM NaCl, 0.01% LMNG; Ka = 1/Kd

full-length wild-type β-arrestin-1, sequence (P49407 whole entry): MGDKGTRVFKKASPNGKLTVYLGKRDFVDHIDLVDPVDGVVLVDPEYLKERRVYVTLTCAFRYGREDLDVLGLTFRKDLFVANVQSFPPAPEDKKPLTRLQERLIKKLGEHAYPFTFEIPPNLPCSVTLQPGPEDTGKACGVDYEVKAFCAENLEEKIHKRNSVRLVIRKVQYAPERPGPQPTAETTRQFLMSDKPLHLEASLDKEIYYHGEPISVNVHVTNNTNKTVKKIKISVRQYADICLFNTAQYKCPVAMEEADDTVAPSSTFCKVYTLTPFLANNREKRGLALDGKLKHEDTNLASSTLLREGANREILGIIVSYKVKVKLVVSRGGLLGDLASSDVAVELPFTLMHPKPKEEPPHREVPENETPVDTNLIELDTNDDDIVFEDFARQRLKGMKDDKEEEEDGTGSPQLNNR
thermostabilized turkey beta-1 adrenergic receptor (turkey), sequence (P07700 whole entry): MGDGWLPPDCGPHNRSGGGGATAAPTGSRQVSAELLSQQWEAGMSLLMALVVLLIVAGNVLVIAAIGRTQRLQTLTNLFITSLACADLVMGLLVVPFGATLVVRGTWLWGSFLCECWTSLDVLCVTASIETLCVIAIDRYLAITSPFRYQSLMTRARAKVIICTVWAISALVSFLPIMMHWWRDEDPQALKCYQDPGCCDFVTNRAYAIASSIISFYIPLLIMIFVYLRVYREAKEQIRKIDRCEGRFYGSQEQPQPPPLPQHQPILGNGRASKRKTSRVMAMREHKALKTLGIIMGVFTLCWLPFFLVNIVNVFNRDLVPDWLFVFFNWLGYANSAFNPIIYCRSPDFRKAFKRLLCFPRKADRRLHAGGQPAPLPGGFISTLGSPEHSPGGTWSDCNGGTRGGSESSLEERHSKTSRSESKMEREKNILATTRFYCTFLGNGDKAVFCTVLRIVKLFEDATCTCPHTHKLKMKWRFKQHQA

Substance: mini-Gα protein mGi (domain or fragment)
Kd [1]: 1620 nM

Substance: mini-Gα protein mGo (domain or fragment)
Kd [2]: 250 nM
binding strength relative to mGq [3]: 2 fold
Kd [1]: 250 nM

Substance: full-length wild-type Gαi (from UniProt P63096 1-354) (natural protein)
complex formation [4]: 60%
complex formation [5]: 92%
complex formation [6]: 60%

More lines, now with the values ahead:

Kd [1]: 1240 nM
Substance: mini-Gα protein mGq (domain or fragment)

complex formation recovered by raising isoprenaline (with s32212) [7]: 80%
Kd [1]: 350 nM
Substance: mini-Gα protein mGs (from UniProt P63092 87-394) (domain or fragment)

Kd [2]: 280 nM
Kd [1]: 230 nM
Substance: mGo truncated by its last five residues (domain or fragment)

complex formation [4]: 32%
complex formation [5]: 88%
complex formation [6]: 32%
Substance: full-length wild-type β-arrestin-1 (from UniProt P49407 1-418) (natural protein)

Ka [8]: 270000 M⁻¹
Ka [9]: 1.02e+06 M⁻¹
Substance: mini-Go (domain or fragment)
